Experiment [1] addresses α1-antichymotrypsin (Homo sapiens (Human), UniProt P01011). The experiment in a line: complex formation with serpin (method not described).
Experiment [2] concerns the target α1-antitrypsin (Homo sapiens (Human), UniProt P01009). Described as above.

B1: recombinant Trp226-hK2 protein (Trp226-hK2 having the N-terminal dipeptide extension Ser-Arg, from insect cells) (enzyme)
chain: not shown
As for B1, the binding result in experiment [1] and in experiment [2] was “no binding” each time.

For the origin of these results see US6303361, “Human glandular kallikrein-1 (hK2)” (Orion-Yhtyma Oyj, dated 2001).
